This experiment deals with HCT116. As to the kind of experiment: MTT cytotoxicity test on HCT116. Conditions: continuous incubation over 72 h. The experiment is classed as cell-based, human.

B1: Ex. 3^a: fusion protein SEQ. No. 3: (TRAIL121-281)-MMP-UROKIN-(SEQ. No. 35, synthetic 15-amino acids lytic peptide) (protein)
chain: RVAAHITGTRGRSNTLSSPNSKNEKALGRKINSWESSRSGHSFLSNLHLRNGELVIHEKGFYYIYSQTYFRFQEEIKENTKNDKQMVQYIYKYTSYPDPILLMKSARNSCWSKDAEYGLYSIYQGGIFELKENDRIFVSVTNEHLIDMDHEASFFGAFLVGPLGLAGRVVRKLLLRLLKKLLRLLK
modifications: synthesized, fusion protein comprising: a fragment of TRAIL protein, synthetic 15-amino acids lytic peptid and cleavage site sequences recognized by urokinase and metalloprotease.
Turning to B1, the IC50 amounted to 1.8785 µg/mL.

What is called IC50 is the midpoint of a concentration-inhibition curve. Low readings indicate inhibition by little substance, high ones a need for much substance.

The values are drawn from patent US20140377216A1, “ANTICANCER FUSION PROTEIN” (ADAMED SP. Z.O.O., priority 2011, published 2014).
